Test results from patent US11453711B2, “Fusion proteins of GLP-1 and GDF15 and conjugates thereof” (BEIJING QL BIOPHARMACEUTICAL CO., LTD., priority 2019, dated 2022).

Tests used:
[1] = Separate DIO mice study with inactivated control molecules, daily sc 22 days; assay type: in vivo, DIO mice (C57BL/6 mice on high fat diet)
Protocol: FIGS. 9A-9G show In vivo efficacy in DIO mice. To evaluate the body weight, food intake and glucose effects of the fusion proteins, 17 week old DIO mice (C57BL/6 mice on high fat diet for 13 weeks) were dosed everyday subcutaneously with different concentrations of proteins for 22 days. […] Data are expressed as mean values and standard error (SEM) for FIGS. 9A and 9C-G. n=5 for each treatment group. For FIG. 9B, a pooled food intake was measured for each treatment group.
17 week old DIO male C57BL/6 mice (˜45 g) were injected everyday subcutaneously with designated proteins (i.e., MLC089, MLC093) for 28 days. Food intake and body weight were measured daily and five animals were used for each treatment group. Fasting glucose was also monitored on designated days. Body weight and glucose were monitored for each individual animal, but food intake for each group animals was measured together. Day 1 and Day 28 are first day and last day of molecule dosage. % BW loss=100*(BW on Day n-BW on Day 1)/(BW on Day 1). Cumulative food intake on Day n represents sum of food intake from Day 1 to Day n. Terminal blood was collected and EDTA-2K plasma was prepared and frozen at −80 C for biomarker measurement. Liver was also collected and frozen in liquid nitrogen and store at −80 C. Data are indicated as mean values and standard error (SEM) or pooled values.

[2] = Stability study: SEC-HPLC (% HMW, % LMW), RP-UPLC and LC/MS after 2 weeks storage; assay type: physicochemical
Protocol: To test the stability, the different conjugated fusion proteins were formulated in buffers with different compositions (pH6, 7, 7.4 and 8.0) and stored at 4° C. and 37° C. or 40° C. for 2 weeks. The % High Molecular Weight aggregate (HMW) and % Low Molecular Weight (LMW) were analyzed by size exclusion chromatography (SEC)-HPLC. The concentration and modifications were analyzed by reverse phase (RP)-UPLC and LC/MS.

[3] = PK study in non-human primates, single sc dose 5 nmol/kg, plasma ELISA; conditions: monkey, single sc dose 5 nmol/kg
[4] = Pharmacokinetic measurement in mouse, single sc dose 30 nmol/kg, plasma ELISA
Protocol: Each fusion protein was injected subcutaneously into C57BL/6 mice (n=3/group) once and plasma samples were collected at designed time points and analyzed by ELISA method. Plasma concentrations are indicated as mean values and standard error (SEM).
6-8 week old male C57BL/6 mice were administrated in a single subcutaneous dose of 30 nmol/kg of the fusion protein conjugates or unconjugated fusion proteins (i.e., MLC002, MLC004, MLC005, MLC006, MLC007, MLC008, MLC009, MLC013, MLC017, MLC047, MLC074, MLC075, MLC089, MLC093, MLC003 and MLC019) (n=3/group). Plasma samples were collected pre-dose (−5 min), 0.5 hr, 1 hr, 2 hr, 4 hr, 6 hr, 8 hr, 12 hr, 24 hr, 48 hr and 72 hr after the injection. The concentrations of the fusion protein conjugates in the plasma were measured by an ELISA assay which has immunoreactivity towards both GDF15 and intact N-terminal of GLP-1. Based on the graph showing plasma concentration of each protein versus time after subcutaneous injection, the pharmacokinetic parameters (including Tmax, Cmax, T1/2, AUC) were calculated by WinNonlin software.

B1: MLC093: fusion polypeptide SEQ ID NO: 381 conjugated with Moiety B at 33C of Linker (conjugate)
chain: HGEGTFTSDVSSYLEEQAAKEFIAWLVRGGGGAQPGAQPGAQPGAQPGAQPGAQPGAQPGAQPCQEPGAQPGQEPGAQPGQEPGAQPGQEPGAQPGQEPGAQPGQEPGAQPARQGDHCPLGPGRCCRLHTVRASLEDLGWADWVLSPREVQVTMCIGACPSQFRAANLHAQIKTSLHRLKPDTVPAPCCVPASYNPMVLIQKTDTGVSLQTYDDLLAKDCHCI
modifications: Moiety B conjugated at linker Cys33
- liver triglyceride contents ([1]; Day 22, FIG. 9G, relative to vehicle or MLC114 and MLC113): reduction of liver triglyceride contents
- efficacy ([1]; separate DIO study, FIG. 9A-9G, versus MLC114 and MLC113): better efficacy than corresponding control molecules having inactivated GLP-1 or GDF15 mutants
- body weight reduction ([1]; separate DIO study, FIG. 9A, versus MLC114 and MLC113): better body weight reduction, food intake suppression and glucose control
- food intake suppression ([1]; separate DIO study, FIG. 9B, versus MLC114 and MLC113): better body weight reduction, food intake suppression and glucose control
- glucose control ([1]; separate DIO study, FIG. 9C, versus MLC114 and MLC113): better body weight reduction, food intake suppression and glucose control
- plasma triglyceride level ([1]; terminal plasma Day 22, FIG. 9D, relative to vehicle or MLC114 and MLC113): therapeutic efficacy in reducing plasma triglyceride, cholesterol and insulin levels
- plasma cholesterol level ([1]; terminal plasma Day 22, FIG. 9E, relative to vehicle or MLC114 and MLC113): therapeutic efficacy in reducing plasma triglyceride, cholesterol and insulin levels
- plasma insulin level ([1]; terminal plasma Day 22, FIG. 9F, relative to vehicle or MLC114 and MLC113): therapeutic efficacy in reducing plasma triglyceride, cholesterol and insulin levels
- HMW % ([2]; 4.65 mg/mL at 4° C., Day 0): 0%
- LMW % ([2]; 4.65 mg/mL at 4° C., Day 0): 0.43%
- Main peak % ([2]; 4.65 mg/mL at 4° C., Day 0): 99.56%
- HMW % ([2]; 4.65 mg/mL at 4° C., Day 7): 0%
- LMW % ([2]; 4.65 mg/mL at 4° C., Day 7): 0.51%
- Main peak % ([2]; 4.65 mg/mL at 4° C., Day 7): 99.46%
- HMW % ([2]; 4.65 mg/mL at 4° C., Day 14): 0%
- LMW % ([2]; 4.65 mg/mL at 4° C., Day 14): 0.39%
- Main peak % ([2]; 4.65 mg/mL at 4° C., Day 14): 99.6%
- HMW % ([2]; 4.65 mg/mL at 37° C., Day 0): 0%
- LMW % ([2]; 4.65 mg/mL at 37° C., Day 0): 0.43%
- Main peak % ([2]; 4.65 mg/mL at 37° C., Day 0): 99.56%
- HMW % ([2]; 4.65 mg/mL at 37° C., Day 7): 0.53%
- LMW % ([2]; 4.65 mg/mL at 37° C., Day 7): 0.56%
- Main peak % ([2]; 4.65 mg/mL at 37° C., Day 7): 98.86%
- HMW % ([2]; 4.65 mg/mL at 37° C., Day 14): 0.8%
- LMW % ([2]; 4.65 mg/mL at 37° C., Day 14): 0.53%
- Main peak % ([2]; 4.65 mg/mL at 37° C., Day 14): 98.6%
- HMW % ([2]; 20 mg/mL at 4° C., Day 0): 0%
- LMW % ([2]; 20 mg/mL at 4° C., Day 0): 0.38%
- Main peak % ([2]; 20 mg/mL at 4° C., Day 0): 99.6%
- HMW % ([2]; 20 mg/mL at 4° C., Day 7): 0%
- LMW % ([2]; 20 mg/mL at 4° C., Day 7): 0.49%
- Main peak % ([2]; 20 mg/mL at 4° C., Day 7): 99.49%
- HMW % ([2]; 20 mg/mL at 4° C., Day 14): 0%
- LMW % ([2]; 20 mg/mL at 4° C., Day 14): 0.44%
- Main peak % ([2]; 20 mg/mL at 4° C., Day 14): 99.24%
- HMW % ([2]; 20 mg/mL at 37° C., Day 0): 0%
- LMW % ([2]; 20 mg/mL at 37° C., Day 0): 0.38%
- Main peak % ([2]; 20 mg/mL at 37° C., Day 0): 99.6%
- HMW % ([2]; 20 mg/mL at 37° C., Day 7): 1.03%
- LMW % ([2]; 20 mg/mL at 37° C., Day 7): 0.53%
- Main peak % ([2]; 20 mg/mL at 37° C., Day 7): 98.38%
- HMW % ([2]; 20 mg/mL at 37° C., Day 14): 1.81%
- LMW % ([2]; 20 mg/mL at 37° C., Day 14): 0.55%
- Main peak % ([2]; 20 mg/mL at 37° C., Day 14): 97.64%
- HMW % ([2]; 20 mg/mL at 40° C., Day 0): 0.56%
- LMW % ([2]; 20 mg/mL at 40° C., Day 0): 0.54%
- Main peak % ([2]; 20 mg/mL at 40° C., Day 0): 98.83%
- HMW % ([2]; 20 mg/mL at 40° C., Day 14): 2.26%
- LMW % ([2]; 20 mg/mL at 40° C., Day 14): 0.84%
- Main peak % ([2]; 20 mg/mL at 40° C., Day 14): 96.76%
- physical and chemical stability ([2]; 4° C., 37° C. and 40° C., 2 weeks): high physical and chemical stability
- AUC0-96 h [3]: 3.843 µM·h
- Terminal t1/2 [3]: 41 h
- Tmax [3]: 16 h
- Cmax ([3]; read-out: Cmax (nmol/L)): 56.2 nmol/L
- Cmax ([4]; read-out: Cmax (nmol/L), single sc dose 30 nmol/kg): 120 nmol/L
- AUC0-24 h ([4]; single sc dose 30 nmol/kg): 2.1637 µM·h
- Terminal t1/2 ([4]; single sc dose 30 nmol/kg): 15.9 h
- Tmax ([4]; single sc dose 30 nmol/kg): 16.0 h
